These results are taken from patent US20100183617A1 (UNIVERSITY OF VIRGINIA PATENT FOUNDATION, published 2010).

The labels stand for the following.
B4: in vitro translated 35S-methionine labeled mature mouse SLLP1 (128 residues) with N-terminal HA tag (ligand, not shown: small tags and cut ends)
chain: KVFSRCELAKEMHDFGLDGYRGYNLADWVCLAYYTSGFNTNAVDHEADGSTNNGIFQISSRRWCRTLASNGPNLCRIYCTDLLNNDLKDSIVCAMKIVQEPLGLGYWEAWRHHCQGRDLSDWVDGCDF
modifications: 35S-methionine labeled
notes: ˜16 kD; also called SLLP1 (S); S-SLLP1

The target of test [1] is T1, SV40 large T-antigen (control construct of the two-hybrid system; HA-tagged when translated in vitro) (SV40, UniProt P03070 86-708).
T1 construct: Control used both in the Y2H assay and in the co-IP (HA tag); also called T-antigen (T)
In words: yeast two-hybrid, high stringency plate.

The target in test [2] is B4. In words: co-IP of in vitro translated 35S-labeled proteins, anti-Myc beads.
Experimental: (§1) High affinity anti-c-Myc and anti-HA monoclonal antibodies coupled to agarose beads were employed to immunoprecipitate proteins (IP) and their radiolabeled putative interacting partners (Co-IP) using the Profound c-Myc/HA Tag IP/Co-IP system (Pierce, Ill.). For Co-IP reactions, the specific TNT products, ranging from 7-23 μl were gently mixed and kept at 4° C. for 1 h. Simultaneously the anti-c-Myc and anti-HA antibody beads were incubated with 5% milk in PBST (phosphate buffer saline with 0.05% Tween 20) for 1 h at 4° C. in Handy spin columns (Pierce, Ill.) with gentle end-over-end mixing to prevent loss of beads during the subsequent steps. Following blocking, the antibody beads were incubated with IP or Co-IP samples overnight at 4° C. in Handee spin columns with gentle end-over-end mixing. The beads were then precipitated and washed 3 times in 500 μl of PBST at 4000×g for 10 sec with 3 gentle mixes during each wash. The IP and co-IP products were then recovered from the beads in 23 μl of 2× non-reducing sample buffer, heated at 99° C. for 5 min, centrifuged, and mixed with 2 μl of β-mercaptoethanol, and 20 μl of this mixture was loaded per lane for SDS-PAGE analysis using Criterion gels (Bio-Rad, CA). After electrophoresis, the gels were fixed, air dried, exposed to phosphor screens, and imaged as described above for analysis of TNT products. […]
For test [3], the target named is T2, purified recombinant mouse SAS1R (mature, 414 residues), His-tagged, expressed in E. coli (mouse, UniProt Q6HA09 24-435).
T2 construct: Purified from the insoluble fraction in 8 M urea on a Ni column; The preparation also holds a ˜25 kD C-terminal fragment; ZEP is the earlier name of SAS1R; also called rSAS1R; rec SAS1R; not shown: twenty vector-encoded (pET-28b(+)) amino acids including a six histidine tag at the N-terminus; ten vector-encoded amino acids including a six histidine tag at the C-terminus
T2 sequence: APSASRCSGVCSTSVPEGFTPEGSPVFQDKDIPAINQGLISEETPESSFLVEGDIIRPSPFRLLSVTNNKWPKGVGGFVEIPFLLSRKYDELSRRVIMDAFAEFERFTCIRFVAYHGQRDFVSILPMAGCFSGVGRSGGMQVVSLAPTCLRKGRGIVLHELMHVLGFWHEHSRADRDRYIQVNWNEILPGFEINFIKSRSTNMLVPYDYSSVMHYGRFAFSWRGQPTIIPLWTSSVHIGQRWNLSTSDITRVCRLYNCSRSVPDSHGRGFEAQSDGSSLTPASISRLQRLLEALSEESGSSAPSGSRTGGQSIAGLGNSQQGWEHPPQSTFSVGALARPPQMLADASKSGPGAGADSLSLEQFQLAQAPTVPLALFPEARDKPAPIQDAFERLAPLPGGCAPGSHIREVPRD
Put plainly: co-localization by immunofluorescence, capacitated sperm incubated with rSAS1R.

Test [4] concerns the target T3, in vitro translated 35S-methionine labeled full length SAS1R with N-terminal c-Myc tag (mouse, UniProt Q6HA09 24-435, 35S-methionine labeled).
T3 construct: ˜50 kD; also called SAS1R full length (F); F-SAS1R full length
T3 sequence: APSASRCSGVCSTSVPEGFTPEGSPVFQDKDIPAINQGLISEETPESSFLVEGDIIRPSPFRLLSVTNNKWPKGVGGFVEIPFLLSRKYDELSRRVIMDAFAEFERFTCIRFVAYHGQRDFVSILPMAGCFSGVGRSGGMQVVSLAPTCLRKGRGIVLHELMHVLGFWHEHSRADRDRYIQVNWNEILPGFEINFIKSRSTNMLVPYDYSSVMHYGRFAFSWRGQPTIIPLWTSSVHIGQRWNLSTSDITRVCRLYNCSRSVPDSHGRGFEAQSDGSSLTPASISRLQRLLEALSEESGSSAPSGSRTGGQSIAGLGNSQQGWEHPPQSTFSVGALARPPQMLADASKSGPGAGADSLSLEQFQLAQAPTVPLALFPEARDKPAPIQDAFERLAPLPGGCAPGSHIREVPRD
In words: co-IP of in vitro translated 35S-labeled proteins, anti-Myc beads.
Experimental: as §1

Test [5] has as its target T2, purified recombinant mouse SAS1R …. Put plainly: far-western overlay.
Experimental: Before protein overlay, the strips were incubated with blocking buffer for 1 h. […] After washing in PBST (×4), the strips were probed with goat anti-mouse HRP secondary antibody in blocking buffer for 1 h, washed in PBST (×4) followed by PBS (×1), and developed with TMB.

T1 sequence (P03070 86-708 limits assumed): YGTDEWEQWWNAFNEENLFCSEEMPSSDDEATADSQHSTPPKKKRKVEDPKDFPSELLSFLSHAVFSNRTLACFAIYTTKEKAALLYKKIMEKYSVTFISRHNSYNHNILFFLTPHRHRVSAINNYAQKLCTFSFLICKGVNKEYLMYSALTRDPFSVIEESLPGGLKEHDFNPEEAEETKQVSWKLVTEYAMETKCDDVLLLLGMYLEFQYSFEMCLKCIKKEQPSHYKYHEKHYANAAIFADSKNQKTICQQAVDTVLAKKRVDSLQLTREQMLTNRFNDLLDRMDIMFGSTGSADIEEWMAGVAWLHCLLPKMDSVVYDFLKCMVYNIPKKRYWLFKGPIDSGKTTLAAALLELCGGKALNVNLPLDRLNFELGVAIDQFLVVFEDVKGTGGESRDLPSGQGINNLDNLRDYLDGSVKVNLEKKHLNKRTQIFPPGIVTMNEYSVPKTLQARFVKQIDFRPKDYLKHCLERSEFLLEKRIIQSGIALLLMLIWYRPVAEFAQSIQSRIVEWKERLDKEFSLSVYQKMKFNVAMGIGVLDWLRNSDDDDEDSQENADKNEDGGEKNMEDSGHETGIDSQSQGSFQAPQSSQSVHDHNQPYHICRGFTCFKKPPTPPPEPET

B1: human Lamin C (negative control construct of the two-hybrid system) (other)
chain: SEEVVSREVSGIKAAYEAELGDARKTLDSVAKERARLQLELSKVREEFKELKARNTKKEGDLIAAQARLKDLEALLNSKEAALSTALSEKRTLEGELHDLRGQVAKLEAALGEAKKQLQDEMLRRVDAENRLQTMKEELDFQKNIYSEELRETKRRHETRLVEID
As for B1, the binding result in test [1] is “no binding”.

B2: in vitro translated 35S-methionine labeled SAS1R N-terminus (121 residues) with N-terminal c-Myc tag (receptor, not shown: small tags and cut ends)
chain: MGAPSASRCSGVCSTSVPEGFTPEGSPVFQDKDIPAINQGLISEETPESSFLVEGDIIRPSPFRLLSVTNNKWPKGVGGFVEIPFLLSRKYDELSRRVIMDAFAEFERFTCIRFVAYHGQR
modifications: 35S-methionine labeled
notes: ˜21 kD; also called N-terminus (N); N-SAS1R N-terminus
In the case of B2, the binding result in test [2] is reported as “binds”.

B3: native mouse SLLP1 of sperm (acrosomal, ˜15 kDa form) (ligand)
chain: KVFSRCELAKEMHDFGLDGYRGYNLADWVCLAYYTSGFNTNAVDHEADGSTNNGIFQISSRRWCRTLASNGPNLCRIYCTDLLNNDLKDSIVCAMKIVQEPLGLGYWEAWRHHCQGRDLSDWVDGCDF
notes: Only a ˜15 kDa form is found in sperm extracts; The predicted processed form is residues 94-221 (cleavage between A93 and K94 is only predicted); On sperm or in sperm extracts; also called native SLLP1; native mSLLP1
Consider B3, for which the binding result in test [3] was “binds”.

In the case of B4, the binding result in test [4] is listed as “binds”.

B5: purified soluble recombinant mouse SLLP1 (mature form, residues 94-221), His-tagged, expressed in E. coli (ligand)
chain: KVFSRCELAKEMHDFGLDGYRGYNLADWVCLAYYTSGFNTNAVDHEADGSTNNGIFQISSRRWCRTLASNGPNLCRIYCTDLLNNDLKDSIVCAMKIVQEPLGLGYWEAWRHHCQGRDLSDWVDGCDF
notes: also called rSLLP1; rec SLLP1; not shown: two vector-encoded residues at the N-terminus and eight at the C-terminus including the six-histidine tag (pET28b+)
With B5, the binding result in test [5] was “binds”.
